Substitutions are numbered along the chain they refer to.
T1: human CD19 on CHO cells (human, UniProt P15391 20-556)
T1 construct: whole, on cells; also called Cells Expressing Human CD19; CHO cells overexpressing the antigen
T1 sequence (looked up): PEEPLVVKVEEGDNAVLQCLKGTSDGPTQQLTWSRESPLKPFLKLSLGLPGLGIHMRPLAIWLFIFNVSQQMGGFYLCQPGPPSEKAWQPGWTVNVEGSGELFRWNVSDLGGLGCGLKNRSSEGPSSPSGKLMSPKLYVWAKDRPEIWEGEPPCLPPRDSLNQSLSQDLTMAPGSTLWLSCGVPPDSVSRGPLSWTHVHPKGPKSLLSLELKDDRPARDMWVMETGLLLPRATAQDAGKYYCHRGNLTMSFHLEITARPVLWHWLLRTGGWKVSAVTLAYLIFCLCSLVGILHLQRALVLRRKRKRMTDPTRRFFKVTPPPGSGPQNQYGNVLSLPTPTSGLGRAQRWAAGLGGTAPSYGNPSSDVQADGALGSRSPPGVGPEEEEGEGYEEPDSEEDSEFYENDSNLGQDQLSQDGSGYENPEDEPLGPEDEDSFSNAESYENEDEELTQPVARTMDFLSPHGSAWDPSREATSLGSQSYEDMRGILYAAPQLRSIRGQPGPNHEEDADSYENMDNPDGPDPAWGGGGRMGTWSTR

T2: human CD19 (human, UniProt P15391 20-291, biotinylated in the Biacore assay of Table 11)
T2 construct: also called isolated CD19; Human CD19 Protein
T2 sequence (looked up): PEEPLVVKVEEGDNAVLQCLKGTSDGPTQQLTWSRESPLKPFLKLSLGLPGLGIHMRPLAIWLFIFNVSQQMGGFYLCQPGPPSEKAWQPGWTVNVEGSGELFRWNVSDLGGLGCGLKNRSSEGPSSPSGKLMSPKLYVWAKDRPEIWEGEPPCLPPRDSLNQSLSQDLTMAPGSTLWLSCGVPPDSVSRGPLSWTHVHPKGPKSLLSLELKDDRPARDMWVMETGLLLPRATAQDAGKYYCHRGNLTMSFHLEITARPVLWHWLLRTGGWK

B1: CNG-CD19-705 (antibody, V domains shown)
VH: QVQLQESGPGLVKPSQTLSLTCTVSGGSISTSGMGVGWIRQHPGKGLEWIGHIWWDDDKRYNPALKSRVTISVDTSKNQFSLKLSSVTAADTAVYYCARMELWSYYFDYWGQGTLVTVSS
VL: EIVLTQSPATLSLSPGERATLSCSASSSVGYMHWYQQKPGQAPRLLIYDTSSLASGIPARFSGSGSGTDFTLTISSLEPEDFAVYYCFQGSVYPFTFGQGTKLEIK
notes: tested as IgG produced in yeast
B2: CNG-CD19-707 (antibody, V domains shown)
VH: B1 VH with G33T, H52F, A64N, I71M, Y109P
VL: B1 VL with S52K
notes: as for B1
B3: CNG-CD19-708 (antibody, V domains shown)
VH: B1 VH with G33T, H52F, A64N, I71M, Y109P
VL: B1 VL with S52K, A54S
notes: as for B1
B4: CNG-CD19-709 (antibody, V domains shown)
VH: B1 VH with G33T, H52F, A64N, I71M, Y109P
VL: B1 VL with S52K, S55F
notes: as for B1
B5: CNG-CD19-710 (antibody, V domains shown)
VH: B1 VH with G27V, G33S, I53A, Y109P
VL: B1 VL with V29F, G30S, S52K
notes: as for B1
B6: CNG-CD19-704 (antibody, V domains shown)
VH: QVQLQESGPGLVKPSQTLSLTCTVSGGSIASGMGVGWIRQHPGKGLEWIGHIWWDDDKRYNPALKSRVTISVDTSKNQFSLKLSSVTAADTAVYYCARMELWSYYFDGWGQGTLVTVSS
VL: B1 VL with G30S, S52K
notes: as for B1
B7: CNG-CD19-706 (antibody, V domains shown)
VH: B6 VH with G36S, G108P
VL: B1 VL with S52K
notes: as for B1
B8: CNG-HSA-117 (VHH)
VHH: KVQLVESGGGLVQPGNSLRLSCAASGFTFSSFGMSWVRQAPGKGLEWVSSISGSGSDTLYADSVKGRFTISRDNSKNTLYLQMNSLRAEDTAVYYCTIGGSLTRSSQGTLVTVSS
B9: CNG-HSA-101 (VHH)
VHH: B8 VHH with N16G, S35T, K65R, T103S, R104P
B10: CNG-HSA-103 (VHH)
VHH: B8 VHH with N16G, S35T, K65R, A88P, T103S, R104P
B11: CNG-HSA-104 (VHH)
VHH: B8 VHH with V5L, N16G, S30H, A88P, T103S
B12: CNG-HSA-105 (VHH)
VHH: B8 VHH with K1E, V5L, N16G, T28V, A88P, T103S
B13: CNG-HSA-107 (VHH)
VHH: B8 VHH with V5L, N16G, K65R, T97S, T103I
B14: CNG-HSA-108 (VHH)
VHH: B8 VHH with N16G, S30G, S56A, T103R, R104A
B15: CNG-HSA-109 (VHH)
VHH: B8 VHH with S30G, L45P, A88P, T103S
B16: CNG-HSA-110 (VHH)
VHH: B8 VHH with S56G, V64A, A88P, T103S
B17: CNG-HSA-114 (VHH)
VHH: B8 VHH with Y60T, T103V
B18: CNG-HSA-115 (VHH)
VHH: B8 VHH with S35G, D62P, A88P, I98F, G99A, T103S
B19: CNG-HSA-118 (VHH)
VHH: B8 VHH with S54G, K65R, T103R, R104A
B20: CNG-HSA-119 (VHH)
VHH: B8 VHH with T58A, V64A, S75A, N77T, T103S, R104P
B21: CNG-HSA-120 (VHH)
VHH: B8 VHH with N16G, L45P, A88P, T103K, R104Q

Tests used:
human CD19 on CHO cells = target: T1, human CD19 on CHO cells; test: flow cytometry, CHO cells, 100 nM IgG
Protocol: The binding affinity of the antibodies to CD19 expressed on the cell surface was also measured. Briefly, approximately 100,000 Chinese hamster overy (CHO) cells overexpressing the antigen were washed with wash buffer and incubated with 100 μl 100 nM IgG for 15 minutes at room temperature. Cells were then washed twice with wash buffer and incubated with 100 μl of 1:100 Human-PE for 15 minutes on ice. Cells were then washed twice more with wash buffer and analyzed on a FACS Canto II analyzer (BD Biosciences).

human CD19 = target: T2, human CD19; test: Octet HTX (ForteBio), IgG on AHC sensor, 1:1 fit
Protocol: The binding affinity of the antibodies to isolated CD19 was measured by […] using a ForteBio Octet HTX system as previously described (see, e.g., Estep et al, High throughput solution-based measurement of antibody-antigen affinity and epitope binning. Mabs 5(2), 270-278 (2013)). Briefly, ForteBio affinity measurements were performed by loading IgGs on-line onto anti-hIgG Fc Capture (AHC) sensors. The sensors were equilibrated off-line in assay buffer for 30 minutes and then monitored on-line for 60 seconds for baseline establishment. The sensors with loaded IgGs were exposed to 100 nM […] for 3 minutes, and subsequently transferred to assay buffer for 3 minutes for off-rate measurement. All kinetics were analyzed using the 1:1 binding model.

mouse serum albumin [1] = target: T3, mouse serum albumin (mouse, UniProt P07724 25-608); test: ratio of the Octet KD for mouse serum albumin to that for human serum albumin
T3 construct: also called MSA
T3 sequence (P07724 25-608 limits assumed): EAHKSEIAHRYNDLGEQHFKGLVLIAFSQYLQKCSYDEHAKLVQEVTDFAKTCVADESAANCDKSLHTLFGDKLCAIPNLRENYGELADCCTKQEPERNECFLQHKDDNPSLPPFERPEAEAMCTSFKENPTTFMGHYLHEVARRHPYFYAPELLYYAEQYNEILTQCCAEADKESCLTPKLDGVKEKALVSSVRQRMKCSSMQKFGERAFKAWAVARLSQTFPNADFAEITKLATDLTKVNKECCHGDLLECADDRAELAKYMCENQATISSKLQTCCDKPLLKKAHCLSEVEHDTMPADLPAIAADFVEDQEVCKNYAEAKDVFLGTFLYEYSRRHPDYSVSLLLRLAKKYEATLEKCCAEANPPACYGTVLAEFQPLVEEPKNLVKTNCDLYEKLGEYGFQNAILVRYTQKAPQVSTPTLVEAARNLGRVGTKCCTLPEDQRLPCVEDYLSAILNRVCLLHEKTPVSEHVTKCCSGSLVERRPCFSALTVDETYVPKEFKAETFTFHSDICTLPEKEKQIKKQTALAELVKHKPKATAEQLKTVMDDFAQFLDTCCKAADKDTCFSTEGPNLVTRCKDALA

human serum albumin = target: T4, human serum albumin (human, UniProt P02768 25-609); test: Octet HTX (ForteBio), HCAb on AHC sensor, 1:1 fit
T4 construct: also called HSA

protein A = protein A (UniProt P38507 37-327); test: Octet HTX (ForteBio), HCAb on AHC sensor, 1:1 fit
mouse serum albumin [2] = target: T3, mouse serum albumin; test: Octet HTX (ForteBio), HCAb on AHC sensor, 1:1 fit
cynomolgus serum albumin = cynomolgus serum albumin (cynomolgus, UniProt A2V9Z4 25-608); test: Octet HTX (ForteBio), HCAb on AHC sensor, 1:1 fit
Sequence of cynomolgus serum albumin (A2V9Z4 25-608 limits assumed): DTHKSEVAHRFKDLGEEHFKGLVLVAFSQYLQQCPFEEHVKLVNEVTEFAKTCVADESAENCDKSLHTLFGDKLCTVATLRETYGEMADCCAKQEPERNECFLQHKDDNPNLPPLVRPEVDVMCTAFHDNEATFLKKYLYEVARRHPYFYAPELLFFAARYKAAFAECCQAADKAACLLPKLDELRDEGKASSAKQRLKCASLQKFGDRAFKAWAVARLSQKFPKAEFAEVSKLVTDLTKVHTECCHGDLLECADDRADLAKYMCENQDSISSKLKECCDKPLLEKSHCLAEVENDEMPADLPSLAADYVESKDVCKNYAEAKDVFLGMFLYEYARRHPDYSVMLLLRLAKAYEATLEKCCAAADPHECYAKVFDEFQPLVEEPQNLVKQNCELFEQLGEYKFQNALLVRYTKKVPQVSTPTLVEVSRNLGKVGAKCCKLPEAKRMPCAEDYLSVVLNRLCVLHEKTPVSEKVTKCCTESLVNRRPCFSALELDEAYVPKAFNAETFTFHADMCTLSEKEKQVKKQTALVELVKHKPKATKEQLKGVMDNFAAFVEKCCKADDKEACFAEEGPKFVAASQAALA

Row | Binder | Binding to Cells Expressing Human CD19 (FOB) (human CD19 on CHO cells) | Kd (human CD19) | koff (human CD19) | Ratio of MSA-KD to HSA-KD (mouse serum albumin [1]) | Kd (human serum albumin) | koff (human serum albumin) | Kd (protein A) | koff (protein A) | Kd (mouse serum albumin [2]) | koff (mouse serum albumin [2]) | Kd (cynomolgus serum albumin) | koff (cynomolgus serum albumin)
1 | B1 | 105 FOB | 0.248 nM | 4.7e-05 s⁻¹ | – | – | – | – | – | – | – | – | –
2 | B2 | 237 FOB | 0.104 nM | 4.66e-05 s⁻¹ | – | – | – | – | – | – | – | – | –
3 | B3 | 210 FOB | 0.156 nM | 6.69e-05 s⁻¹ | – | – | – | – | – | – | – | – | –
4 | B4 | 234 FOB | 0.107 nM | 4.6e-05 s⁻¹ | – | – | – | – | – | – | – | – | –
5 | B5 | 153 FOB | 0.135 nM | 4e-05 s⁻¹ | – | – | – | – | – | – | – | – | –
6 | B6 | 140 FOB | 0.367 nM | 0.000101 s⁻¹ | – | – | – | – | – | – | – | – | –
7 | B7 | 241 FOB | 0.0859 nM | 4e-05 s⁻¹ | – | – | – | – | – | – | – | – | –
8 | B8 | – | – | – | 8.07 | 5.56 nM | 0.000793 s⁻¹ | 1.78 nM | 0.0002 s⁻¹ | 44.8 nM | 0.00877 s⁻¹ | 4.05 nM | 0.000608 s⁻¹
9 | B9 | – | – | – | 3.17 | 5.07 nM | 0.000716 s⁻¹ | 1.84 nM | 0.0002 s⁻¹ | 16.1 nM | 0.00341 s⁻¹ | 3.58 nM | 0.000532 s⁻¹
10 | B10 | – | – | – | 3.09 | 4.89 nM | 0.000742 s⁻¹ | 2.02 nM | 0.000221 s⁻¹ | 15.1 nM | 0.00324 s⁻¹ | 3.62 nM | 0.000541 s⁻¹
11 | B11 | – | – | – | 6.57 | 7.71 nM | 0.00112 s⁻¹ | 1.7 nM | 0.0002 s⁻¹ | 50.6 nM | 0.0105 s⁻¹ | 6.1 nM | 0.000874 s⁻¹
12 | B12 | – | – | – | 10.1 | 15.2 nM | 0.002 s⁻¹ | 2.76 nM | 0.000297 s⁻¹ | 154 nM | 0.0206 s⁻¹ | 12.7 nM | 0.00163 s⁻¹
13 | B13 | – | – | – | 2.72 | 16.8 nM | 0.00238 s⁻¹ | 3.09 nM | 0.000333 s⁻¹ | 45.6 nM | 0.00851 s⁻¹ | 13.3 nM | 0.00182 s⁻¹
14 | B14 | – | – | – | 1.3 | 6.19 nM | 0.000958 s⁻¹ | 2.94 nM | 0.000294 s⁻¹ | 8.06 nM | 0.00185 s⁻¹ | 5.27 nM | 0.000794 s⁻¹
15 | B15 | – | – | – | 3.4 | 3.5 nM | 0.000566 s⁻¹ | 1.78 nM | 0.0002 s⁻¹ | 11.9 nM | 0.00284 s⁻¹ | 3.1 nM | 0.000503 s⁻¹
16 | B16 | – | – | – | 6.82 | 5.7 nM | 0.000893 s⁻¹ | 3.67 nM | 0.000378 s⁻¹ | 38.9 nM | 0.00838 s⁻¹ | 5.2 nM | 0.000759 s⁻¹
17 | B17 | – | – | – | 1.2 | 14.7 nM | 0.00221 s⁻¹ | – | – | 17.5 nM | 0.0038 s⁻¹ | 12 nM | 0.00173 s⁻¹
18 | B18 | – | – | – | 2.17 | 2.96 nM | 0.000441 s⁻¹ | – | – | 6.43 nM | 0.00132 s⁻¹ | 3.37 nM | 0.000618 s⁻¹
19 | B19 | – | – | – | 1.28 | 9.36 nM | 0.0013 s⁻¹ | – | – | 12 nM | 0.00274 s⁻¹ | 6.65 nM | 0.00102 s⁻¹
20 | B20 | – | – | – | 5.59 | 7.36 nM | 0.00109 s⁻¹ | – | – | 41.1 nM | 0.00854 s⁻¹ | 5.73 nM | 0.000864 s⁻¹
21 | B21 | – | – | – | 1.37 | 3.15 nM | 0.000507 s⁻¹ | – | – | 4.32 nM | 0.00107 s⁻¹ | 2.6 nM | 0.000422 s⁻¹
